Reference: patent publication US20180055923A1 (WASHINGTON UNIVERSITY, published 2018)

T1: human fibrinogen free from plasminogen and von Willebrand factor (Enzyme Research Laboratory) (human, UniProt P02671 20-629; P02675 31-491; P02679 27-437)
T1 construct: It was bought as purified protein and coated on plates; also called Fg; immobilized human fibrinogen
T1 sequence 1: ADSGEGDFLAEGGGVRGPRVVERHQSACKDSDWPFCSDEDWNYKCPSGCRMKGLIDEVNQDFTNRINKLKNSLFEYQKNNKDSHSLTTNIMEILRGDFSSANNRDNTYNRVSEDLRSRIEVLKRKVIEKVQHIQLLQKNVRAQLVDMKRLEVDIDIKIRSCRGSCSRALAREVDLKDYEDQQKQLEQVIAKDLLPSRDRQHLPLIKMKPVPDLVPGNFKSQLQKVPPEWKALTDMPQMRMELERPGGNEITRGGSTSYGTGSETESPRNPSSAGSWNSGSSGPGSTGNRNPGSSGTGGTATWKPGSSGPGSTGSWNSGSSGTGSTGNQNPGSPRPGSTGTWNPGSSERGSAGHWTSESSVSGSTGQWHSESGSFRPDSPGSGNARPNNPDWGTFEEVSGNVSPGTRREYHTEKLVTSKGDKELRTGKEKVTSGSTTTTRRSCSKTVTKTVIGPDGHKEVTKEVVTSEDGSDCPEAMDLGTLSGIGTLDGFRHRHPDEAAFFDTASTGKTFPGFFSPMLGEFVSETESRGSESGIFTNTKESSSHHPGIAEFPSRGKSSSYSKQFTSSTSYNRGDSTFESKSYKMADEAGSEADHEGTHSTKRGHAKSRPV
T1 sequence 2: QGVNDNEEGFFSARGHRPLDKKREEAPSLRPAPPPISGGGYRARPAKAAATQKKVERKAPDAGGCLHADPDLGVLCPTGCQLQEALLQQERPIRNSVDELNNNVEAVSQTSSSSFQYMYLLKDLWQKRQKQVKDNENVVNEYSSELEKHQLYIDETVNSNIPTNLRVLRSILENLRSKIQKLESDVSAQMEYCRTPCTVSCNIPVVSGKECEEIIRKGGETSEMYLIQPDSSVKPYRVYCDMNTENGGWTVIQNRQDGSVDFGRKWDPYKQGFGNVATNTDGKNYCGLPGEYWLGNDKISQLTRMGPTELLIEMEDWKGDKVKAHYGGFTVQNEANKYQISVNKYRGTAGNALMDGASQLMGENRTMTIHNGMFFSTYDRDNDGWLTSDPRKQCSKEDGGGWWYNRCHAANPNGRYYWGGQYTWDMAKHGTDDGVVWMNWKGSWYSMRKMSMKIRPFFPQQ
T1 sequence 3: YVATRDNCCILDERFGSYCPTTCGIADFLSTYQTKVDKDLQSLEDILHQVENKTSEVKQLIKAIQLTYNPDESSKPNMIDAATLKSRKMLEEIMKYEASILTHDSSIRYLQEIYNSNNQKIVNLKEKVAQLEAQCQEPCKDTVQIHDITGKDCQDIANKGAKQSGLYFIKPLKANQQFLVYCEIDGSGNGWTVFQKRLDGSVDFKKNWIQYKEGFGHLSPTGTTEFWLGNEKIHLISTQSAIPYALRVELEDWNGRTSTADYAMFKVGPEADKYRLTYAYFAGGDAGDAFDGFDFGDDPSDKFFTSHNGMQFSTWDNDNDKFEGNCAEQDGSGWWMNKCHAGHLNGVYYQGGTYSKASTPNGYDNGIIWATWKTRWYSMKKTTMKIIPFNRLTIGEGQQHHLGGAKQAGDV

B1: 6xHis-EbpA^NTD (N-terminal domain of EbpA, residues 115 to 577) (other)
chain: PEKITVPENTKETNKNDSAPEKTEQPTATEEVTNPFAEARMAPATLRANLALPLIAPQYTTDNSGTYPTANWQPTGNQNVLNHQGNKDGSAQWDGQTSWNGDPTNRTNSYIEYGGTGDQADYAIRKYARETTTPGLFDVYLNVRGNVQKEITPLDLVLVVDWSGSMNENNRIGEVQKGVNRFVDTLADSGITNNINMGYVGYSSDGYNNNAIQMGPFDTVKNPIKNITPSSTRGGTFTQKALRDAGDMLATPNGHKKVIVLLTDGVPTFSYKVSRVQTEADGRFYGTQFTNRQDQPGSTSYISGSYNAPDQNNINKRINSTFIATIGEAMALKQRGIEIHGLGIQLQSDPRANLSKQQVEDKMREMVSADENGDLYYESADYAPDISDYLAKKAVQISGTVVNGKVVDPIAEPFKYEPNTLSMKSVGPVQVQTLPEVSLTGATINSNEIYLGKGQEIQIHYQV
notes: not shown: N-terminal 6xHis tag from vector pQE-30Xa
B2: 6xHis-EbpA^CTD (C-terminal domain of EbpA, residues 594 to 1077) (other)
chain: MNGRTTQPLATAPEKVDFGVPSGKAPGVKLNVKKIWEEYDQDPTSRPDNVIYEISRKQVTDTANWQTGYIKLSKPENDTSNSWERKNVTQLSKTADESYQEVLGLPQYNNQGQAFNYQTTRELAVPGYSQEKIDDTTWKNTKQFKPLDLKVIKNSSSGEKNLVGAVFELSGKNVQTTLVDNKDGSYSLPKDVRLQKGERYTLTEVKAPAGHELGKKTTWQIEVSEQGKVSIDGQEVTTTNQVIPLEIENKFSSLPIRIRKYTMQNGKQVNLAEATFALQRKNAQGSYQTVATQKTDTTGLSYFKISEPGEYRMVEQSGPLGYDTLAGNYEFTVDKYGKIHYAGKNIEENAPEWTLTHQNNLKPFDLTVHKKADNQTPLKGAKFRLTGPDTDIELPKDGKETDTFVFENLKPGKYVLTETFTPEGYQGLKEPIELIIREDGSVTIDGEKVADVLISGEKNNQITLDVTNQAKVPLPETGGIGRLW
notes: Plasmid pSJH-541; not shown: N-terminal 6xHis tag from vector pQE-30Xa

Target: T1, human fibrinogen free from plasminogen …
Experiment: ELISA, purified protein on immobilized human fibrinogen, detected with mouse anti-EbpA^Full

Row | Binder | binding result
1 | B1 | binds
2 | B2 | no binding
